This note sets out measurements from the DeepSol protein solubility set.

The series is described as follows: soluble on expression in E. coli; label from the status in PepcDB or PDB records.
With “MAHHHHHHMRVALIFGITGQDGSYLSELLLEKNYHVHGVIRRCSSFNTKRIDHIFDKLILHYGDLLDSSNICSLICEIKPNEIYNLAAQSHVKVSFEMPEYTTEATALGTLRILEGIRISKVKNIKFYNASTSELFGKVQCPIQNENTPFYPVSPYAIAKLYAHYITINYRESYNMFCINGILFNHESPRRGETFVTRKITRGIAKIQKKLETSIILGNIDTYRDWGHAKDYVYAMYLMLQQNEADDFVICSNEQHSVREFCEISFSFVNIHIKWIGKGIQEIGVDQNNNVLIKKHEKYFRNCEVNTLLGDCSKAKNILKWEPTYTFTQLVYEMLKCDMQDYNLSMDDYDTCMKKYDTYKMGKKQ”, the “soluble on expression in E. coli” value was “not soluble”. “MAHHHHHHMRVFVLVAVRSGDGGVATYPPSVWHLQQCVRARSASCCHATSGGYLWTRDALFRALRRTHVDGAPASVLENAGASQRAKAAAPPCFYFFSALLDVGNNEEDVDLVALLLMELCVAWPNAIAAHMEVCRVCRGELSPAHASSPLAATLGEGETDEPSWQLEHFTREEALLVLLSDEIEATAATQDDFLTRWGVHNAWDHHRALQGRSWWVSGGIVAVLPSEAATRLVEPFLMLELSRMENGCPQLSRHPASCRDSSQTLEEALTHAILERELSHSVRAYLRNEVEGRIESRRLHRMTTVVPPAMALFLRGAPSSVLHECLLYHTVDCPLFPVEGGGCDAAQSSTDRATGLVAPAASPTAFLRPVKSGLSSTDLLERQRLVARDETSRLTELFCEYDLLLSGDGYVRVPLAPVSRYVFTQLLCQSELPSALMLALMRRHSDVTRRAGDMGHRIDPAAVSSRLPPPTEEEVVLGIKVTWAVTRWTAALQRGAAAAPPVGLPMWNEEQSLRKDKLCGWIRERMRKAKREAAELYSLEDAADTRATGREEDGVASTVSALPVASGDTADPLRRCRGAALEQLERRLFAPFPSSYRGSSTEWLGQALRDVAREQRHAASNMAQRDDVRASYAGPAPAARRAASPNVLDNSSSASDSDGTSDDGSEGAGGVGTPTRQETESLLAQLTELEVVLQNELASRTAIPLACGGDSRTTDSRLGVGDAVTGDQEMDVTSWLTAADMQQVTRNELFLHHVQLLESEMEQDQ”: the “soluble on expression in E. coli” value is listed as “not soluble”. As for “MAHHHHHHMRYFRVLHNFDAQDGVELTVKKGETVFTAESEVREGWIKVEVLHDPRRRGFVPFNYLRETTESLAREQEEGSRGIGRESGGMSTASMTLQPSAVPRETSVTFTSGALDYGDRLQNMYGVGASAPSPVSQRSRSAEQGMKRVNENSMATATKGAVMEPLLPSQKVPSSPPSGADPVPERSLLNNPSAIVEAFMKNELHFKQLIRQRQDALAQMRTTVEEAMSELAACKEKNFTLARKLRELDQSVEKERGRWKERIMEEKAYISRSMSSE”, the entry is “soluble”; as for “MAHHHHHHMSAAAADYPLRRGGDVEDDVDDEERRRLTESSIKAFLEEEGVPVRSSVTVEDITSALVALANSVATASACLAVKVALLRLDCLTAVEGELRKDATRASSSKVRVTAEKSPSPRMTRASAFGWLRHLHQEGKGVCGVLRGGKAELGFVLASFVEEALLFAAMRSLMDRLGPLLPSENGRAGGAAALWWAGLSRTVAPTFVMSLLSWPLRAVRTTIRVNYMADTSLPVCEPSLQPAQQQGEQQQRRQHRYTSATEVWGCVLHRMGVRSLLLNGLDVDFASRALSLGLAWTVVKPASRWMQRWAMMSASTAGAASAPLALVRLGQHRLFALGVLLAVAGSVNALQRPFVVLRQRMALLPVADAESVCNGDDDQTKTPPTARRGCRYANGWDCAVQVWRQEGVSGLLAGLPLCLITSSVVPLLRTFAGYPTAPSFSGAVV”, “not soluble”; as for “MAHHHHHHMSAVLMAAVKVWTGNVRACLRVHHDTRTFCKAMKMRNLPVVLLDGVRFASLESVQHGKVRTRKDVVSGDLCVAIRKLNGVELMDDVQPRDPAIFLRDEKSKTFSAEEAREIYSIIVKSLSHILVVDSEVKTVECGIKRIMGNSTATEPETPKLTDLIRWLKSNMSTHDVLPIFSTQDRTVTFFVNQKIFRRIGHSDNGRRKK”, “not soluble”. The same measure for “MAHHHHHHMSCITSPPQPSSPPRMDAHTCVCIGITMPPAARQRKGARRSLTLPLLSLPWRKIRDQEGGAVCAGPVQQLPWKVRAEAALQSRPSPPAIRRRYLALSLPMRTSAAAAVAAAAHAGVRALHTATGVAGNSCGASPRATVALPPHSGLTLPSFTRCGASSAAFITRAHSVGCCGCAAAVKQHRLYSSHGCSSNSSGSFADSSRPYVPGQAVQETYPIIQLPARSLWCRQYALDARRVAQGEYAGLISQVREARHYYQYPSMSAPQTGWNVQMFTLFDNSVFINPVNLDEEVWRAEAARQGMSWVAFEEEKMRELRAEGLTGFAWEPCASSGFLLHYIERPLTVRMRALDEHGKPFTVTLDKMRARMALHELDHLQGVLFTRRVVDTDHVVPMEGFVTMSDWSDDYPSLEARSTFLYTIFTPPYHFVSDAVPDGNLLDRKFEDGIYPGCEQDRQQRIELTAMEEIQRNVWRKEKAKRKEGGQQCGRGDVTAVEDDDGSGAAGAR”: “not soluble”; for “MAHHHHHHMSDAFEARMSAMRARLSSLCHTVEEQEVEQQQQRRSFEHRYFVEARAAGSAATPAATKPITSTATPPSSAPISRPVTSKSQVPRTDGISERDVNQVHSASRKDAAFGHHFGTSSPSASITRARAAKPGSGVNAMLQLARYHASGSWSEAVVTKDIVRFTGGRSSPVPKAPATIPPEAFAVNTGQDTTDSSPVPLMPCGVAGLHSYGFRERLPSPRRPTASLAANTVDLASRNGEGRTSQNTPREESCITAADTTIVDTMHADEATSFDAFRVVQERLRQKMMQLTTTSPHSVVPLSTRGAPAEFAVSDDATAPREELPHRGLTASRAVSDVDGSSPSPRPPPGTRAETATPTRSPDKDESSSHETAPLPQTTPRYQHGQGDTWTDVEVLPATTEPDTENATEARLFTHGSLHDSVVGSGDETTAVSREWQWSRCGVPSTKARTANVPRGVFDPTVRHVRVSRMPSSDAQLNPAAGEQRADSREYRRSPEAATAGRAHSDRGRSGRTTASIQHGVSSAPRRSGSRHAPSSTSAARWSATREGSVSTAARSRKSAPKPAARPKPISLNVEATILCPVTGAELFALLRMRGLIDSEGDTAEYRLPPVRCHRLYVTAEEHRQLKLLRQSLHSLVAEEQHQDIPSYQRFTVSARSRNAEFAPPPPVLRYMDV”: “not soluble”.

“MAHHHHHHMSDHEMYDNIDAGASQTYPVQAGAIKKNGHVMLKEHPCKVVDYSTSKTGKHGHAKAHIVGIDIFTGRKYEDICPTSHNMDVPVVKRTELQLIDITEDGFVSLLYDNGDTKDDLSLPKDTEGNLDEVAKQIRNLFDNGKSVLVSVLSACGQEKIIAAKELSS”: the “soluble on expression in E. coli” value is “soluble”. For “MAHHHHHHMSDQINVKHKIGDTCRKLYSYFKTVNNTSTFIQNGTLTPSEFVDSGDFLVYKFKTWEWQEADKDRVVPYLPENKQFLITKNVPCKQRIKDLNNIVHDLIMIGYSQVMKKITIPQIYMNIYLIVNTQLMTKMYKMYKITSCYSKNMLHDSNSFKNNFIIIIKNFTCLNIITYDKYYQTPRIWLFGYNENGDPLKSEEIFEDILSDYSYKTVTVKIKIIFMILIRVLVHAEAILNVVNNWISEEKEPRIKKRINVYMYVFCFRHDLYLLFLLKFISGVIPTIEYDFTTDIEIPRDSNAGL”, the “soluble on expression in E. coli” value is reported as “not soluble”. With “MAHHHHHHMSFKQVFLRDNEECQAFPWDALTHPSQSAGEERRTIHHHLAWPAVCEREEAVMGTQPARKVSELTSVSFFLQPPFAIPRRKTGRSSLGCRHDRPLYAAGSAGPRCGDKPTLFVGAAEADFCDDMGWRQRSNSPVSSVEHNAEDDGEDFDVEPVVLKRSLSEKDRRKRLHLSEMSARLCHAFAMKPFRLACGLGLDESDDGVGMENQSGWGAGEEAAVPLREKDDDDDTTPARQTAPISETQRGNTALNFTDNDLSVVRAIALALMEEGEKKRRQEMRRKTN”, the “soluble on expression in E. coli” value is recorded as “not soluble”. As for “MAHHHHHHMSFVKGAIHVSILNNYMDFYKESTVDKIETSFSIRNNNESNTKNNEKRKSSLCIMNDEEKMKNKISKCIKNNNLYKNKKKRRKEKNIISNKSRSKKFLKFNIKGKDKKNNINSNIYNNANNNKLKIKNKNNNNNNNNNKINSCCRNVYKGSTNKRNSKLLLNGEIKHDEIFHTNIDNSFICMNKNDMNLIRKCKENNHPIKQMNTKIKKKKYNKKNVLISKQINKEIQMLKSNNSYIMYHMNEKRNIEKEKKKKKCKKIVKSILYNRKRSHYYISNFLKTCMKIKNNKIQKKLKKYVYLKDIYSTINMSNKQTCNNLNEQNKSQFFFDDLQKVRQVNKCDNKLYKMNFKSLKHQTNGKKNNIKENDNNNNFYNEDNSIAEILSDDYIILNKNKSNKMENKIYNNVINHRHSSEDIYLNHSKSKENNNNLVNSYVMKENNMEDKELMNDNEKKEGQLILKNVNKKIQLCNESKLDNEKKNKGDNIKLGNTKNKDNIYKYLNVLSINKLIKGETYLEKRTKKSDNSNEHKNDNIYDDKKIKYKSVENDTSELLDKNIDNSNFFDEANEKKKKLKKKKMNTCVNKNVMDYVNEDEYYLEERVKKKRKKKKKDNKKYNIKNKNESEEIFEDVSSTNSCIDSNNSGTFIYDEEICKHVINKGNIISNNNNNNNNNNYIVLTGNEKNMNAEEISEYITKQGLNFKEYLIWKEIKIKESKELIHLNLDSSFSVSKGAGLYNYGQNICFFNSIIQAIIRIPYICKDLLNKLHSINCEKRKKKTFCFYCLFEQFACNIISKKSVIKNVLIPYIKKYMCNSYHIGYQEDVHEYLRYFLNSLEKTSFFSSIYIQKMFTGVSKNVTICMNCNNVSLKYEQYYELSLDISSSNNLEDALKHFLSKEMLAGENGYYCEKCKKKKKATKQCVINKLPRVLTIQIKRFFMNSNFDIVKNHKNISYPLYLDMKYYVNNYDLFENNFNNNVISLYEKMNKTNCVGSTTNGPNKKNNKIYHQNNSCNIKSNNHFVHTNYNNKGQNILTPEKLTQQNIIPEHSFSKNKVNYENDFFLNNMNKKRECSNDDIISNINKNENIFFNNKDKEYMINEKYMNTNQCIKLRGGNHNINMHVLKIIENILIDLKESMCQKQIQNKLTSKVLRNMIREKKKLLIKQLKKIKFSKLYKDISLRISKDIDMLYYYFKVNRENDQFKKIIYKYKIDYYEYYVGSTNINADFINYNHNFDSPAKDHHNNNPHQNNDENNNRHSNVNFKEGNAKNSNKKNNYFSFELTGLIKHIGSGTDYGHYIALTKSNNNIYLQCDDNHISYINKKDILNCVKNAYVFIYTCINPEFIDFYNKYVDVLEKKNFDINLPVFEKRVKFKERITMPKEKFINKSLCY”, the entry is “not soluble”; as for “MAHHHHHHMSGDLLEILGESRNWVLKRHRVLGKGGFGCATLYEEVHTPGSFVVVKDINMQIMKKEEEMKAVEMEVAILRRSCGHPNIVQFLDYYHDGQFMMYIVMEYCEGGDLARLEEQMQFRVFHQPERFVASILIQMLVGLYYLHVDQHTLHRDIKPQNVFLCSDGTIRIGDFGVSTVLNQYGCRAKAVCGSPFYMAPELCEEKAYDGKADLWSLGVMMYELMVLERPFNAKSIPALTRQIIHGEFSPIPRELHYSAQLVEMVESFLQTSPTARPTLRRVLRSSYVHSHLDCVPIVCLLSDHYARLFGEELLQQILQKHKDSTNTTSQVTTVVSRNSASVQEVERCKNHSDHSDSASAQPLAHQEISELEQWLEANGDVTDAFIDAQLPRNRADGQELSNSPSDIGRAVKTGRVFSDDIMDDSISSEQGKGQQAEDDVRDDFYEDDFESESSG”, “soluble”; as for “MAHHHHHHMSGYLKVLSPDGRWETRYIEIDDAKLRIWRTKGDKESSAAVVKELDLKCATLREVSEPNTWAVQPEKAEATYFQADGEERKTEWMDTLRHYNSSSSGSEKVTLRDFEKKFVLGKGSYGKVFMVVKKDTDKWYAMKEMSAEKMRQAEIKAPFAERIILEEIDHPFIVHLHYSFQEQGNLYMILDLLAGGELFTYIEQHAPLDEEVVKFYAAEVALALGYLHSRNIIYRDLKPENVVFDRDGHACLTDFGLAKANVHEPNAVTYCGTNEYLAPELLKGVPHGKAVDWWSLGLMMCEMLFNDLPFYDENPMQMQMKILTEDVAFPPHIQITEETKDLIRCLLNKNPERRLQTLEAFKAHKCFSNLDFCLLEARKLKAPITPDPNPAHNFAKEFTSEVIVQNESPSQAVVTLAGYTYDRDLSEQEKSPSHSPTIAEELRQRRASKKRPTNGSDAASPPVTGENRTSNSSPAGVPMKQAAPGPVKKVEHHIPAKVAPQAARKKLTGNKSFDKPTK”, “soluble”.
